Test results from paper PMC7424196 (iScience, 2020).
Read-outs that look alike come from different tables or passages of the source. Blank lines part the entries; values can stand above or below the binder they belong to.

Key:
γc extracellular domain [1] = target: T1, γc extracellular domain (UniProt P34902 23-263); test: SPR
T1 sequence (looked up): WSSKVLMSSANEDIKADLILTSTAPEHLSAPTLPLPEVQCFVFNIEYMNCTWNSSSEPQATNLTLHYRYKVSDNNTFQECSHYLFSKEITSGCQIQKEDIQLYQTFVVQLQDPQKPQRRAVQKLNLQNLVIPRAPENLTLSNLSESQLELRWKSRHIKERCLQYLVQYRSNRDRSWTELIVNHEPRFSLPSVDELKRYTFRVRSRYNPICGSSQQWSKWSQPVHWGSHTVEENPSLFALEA

γc extracellular domain [2] = target: T1, γc extracellular domain; test: SPR; remark: listed apart in the source

Kd (γc extracellular domain [1]): 0.0373 ± 0.0004 µM | koff (γc extracellular domain [1]): 0.000221 s⁻¹ | kon (γc extracellular domain [1]): 5930 M⁻¹ s⁻¹
B1: IL-7Rα extracellular domain (domain or fragment, UniProt P16872 21-239, looked up)
chain: ESGNAQDGDLEDADADDHSFWCHSQLEVDGSQHLLTCAFNDSDINTANLEFQICGALLRVKCLTLNKLQDIYFIKTSEFLLIGSSNICVKLGQKNLTCKNMAINTIVKAEAPSDLKVVYRKEANDFLVTFNAPHLKKKYLKKVKHDVAYRPARGESNWTHVSLFHTRTTIPQRKLRPKAMYEIKVRSIPHNDYFKGFWSEWSPSSTFETPEPKNQGGWD

Kd (γc extracellular domain [2]): 577 ± 40 µM
B2: IL-2Rβ extracellular domain (domain or fragment, UniProt P16297 27-240, looked up)
chain: AVKNCSHLECFYNSRANVSCMWSHEEALNVTTCHVHAKSNLRHWNKTCELTLVRQASWACNLILGSFPESQSLTSVDLLDINVVCWEEKGWRRVKTCDFHPFDNLRLVAPHSLQVLHIDTQRCNISWKVSQVSHYIEPYLEFEARRRLLGHSWEDASVLSLKQRQQWLFLEMLIPSTSYEVQVRVKAQRNNTGTWSPWSQPLTFRTRPADPMKE
